Experimental data published in article PMC9871336, “Positive charge in the K-loop of the kinesin-3 motor KIF1A regulates superprocessivity by enhancing microtubule affinity in the one-head–bound state” (The Journal of Biological Chemistry, 2022).

Experiments:
[1] = system: T1, 1A-K1L12; assay: stopped-flow ATP-triggered half-site release of mant-ADP; assay type: biochemical, Rattus norvegicus; details: taxol-stabilized microtubules; 1HB complex with mant-ADP; Mg-ATP varied; half-maximal ATP for mant-ADP release, not steady-state ATPase
T1 construct: gene Kif1a; fused to D. melanogaster KHC neck-coil for dimerization; C-terminal His6; E. coli

[2] = substrate: Nc1ncnc2c1ncn2[C@@H]1O[C@H](COP(=O)(O)OP(=O)(O)OP(=O)(O)O)[C@@H](O)[C@H]1O; assay: as above; assay type: biochemical, Rattus norvegicus; details: taxol-stabilized microtubules; 1HB complex with mant-ADP; Mg-ATP varied; half-maximal ATP for mant-ADP release, not steady-state ATPase

Molecule | Km [1] | Km [2]
Nc1ncnc2c1ncn2[C@@H]1O[C@H](COP(=O)(O)OP(=O)(O)OP(=O)(O)O)[C@@H](O)[C@H]1O [ATP] | 64 ± 28 µM | 
1A368 (Rattus norvegicus) (protein, KIF1A 1-368 (motor, neck linker) fused to D. melanogaster KHC neck-coil 345-406 for dimerization (biochemical version; 345-560 plus GFP for single-molecule); C-terminal His6; E. coli; dimer) MAGASVKVAVRVRPFNSREMSRDSKCIIQMSGSTTTIVNPKQPKETPKSFSFDYSYWSHTSPEDINYASQKQVYRDIGEEMLQHAFEGYNVCIFAYGQTGAGKSYTMMGKQEKDQQGIIPQLCEDLFSRINDTTNDNMSYSVEVSYMEIYCERVRDLLNPKNKGNLRVREHPLLGPYVEDLSKLAVTSYNDIQDLMDSGNKARTVAATNMNETSSRSHAVFNIIFTQKRHDAETNITTEKVSKISLVDLAGSERADSTGAKGTRLKEGANINKSLTTLGKVISALAEMDSGPNKNKKKKKTDFIPYRDSVLTWLLRENLGGNSRTAMVAALSPADINYDETLSTLRYADRAKQIRCNAIINEDPNNKL |  | 119 ± 20 µM
1A393 (Rattus norvegicus) (protein, KIF1A 1-393 (motor, neck linker, neck-coil) fused to D. melanogaster KHC neck-coil 345-406 for dimerization (biochemical version; 345-560 plus GFP for single-molecule); C-terminal His6; E. coli; dimer) MAGASVKVAVRVRPFNSREMSRDSKCIIQMSGSTTTIVNPKQPKETPKSFSFDYSYWSHTSPEDINYASQKQVYRDIGEEMLQHAFEGYNVCIFAYGQTGAGKSYTMMGKQEKDQQGIIPQLCEDLFSRINDTTNDNMSYSVEVSYMEIYCERVRDLLNPKNKGNLRVREHPLLGPYVEDLSKLAVTSYNDIQDLMDSGNKARTVAATNMNETSSRSHAVFNIIFTQKRHDAETNITTEKVSKISLVDLAGSERADSTGAKGTRLKEGANINKSLTTLGKVISALAEMDSGPNKNKKKKKTDFIPYRDSVLTWLLRENLGGNSRTAMVAALSPADINYDETLSTLRYADRAKQIRCNAIINEDPNNKLIRELKDEVTRLRDLLYAQGLGDITD |  | 96 ± 53 µM
